Key:
rab4a_human RAB4A [1] = biological target: rab4a_human RAB4A (UniProt P20338)
rab4a_human RAB4A [2] = biological target: rab4a_human RAB4A (UniProt P20338); remark: listed apart in the source

Sequence of rab4a_human RAB4A (P20338 whole entry): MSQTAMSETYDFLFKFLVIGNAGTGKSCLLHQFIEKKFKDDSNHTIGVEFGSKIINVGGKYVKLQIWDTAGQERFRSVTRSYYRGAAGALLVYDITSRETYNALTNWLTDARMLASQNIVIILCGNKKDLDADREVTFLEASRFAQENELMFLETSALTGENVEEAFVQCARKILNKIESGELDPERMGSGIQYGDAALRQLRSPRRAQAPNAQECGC
Sequence of Protein NDRG1 (Homo sapiens), Q92597 L146P (Q92597 whole entry L146P): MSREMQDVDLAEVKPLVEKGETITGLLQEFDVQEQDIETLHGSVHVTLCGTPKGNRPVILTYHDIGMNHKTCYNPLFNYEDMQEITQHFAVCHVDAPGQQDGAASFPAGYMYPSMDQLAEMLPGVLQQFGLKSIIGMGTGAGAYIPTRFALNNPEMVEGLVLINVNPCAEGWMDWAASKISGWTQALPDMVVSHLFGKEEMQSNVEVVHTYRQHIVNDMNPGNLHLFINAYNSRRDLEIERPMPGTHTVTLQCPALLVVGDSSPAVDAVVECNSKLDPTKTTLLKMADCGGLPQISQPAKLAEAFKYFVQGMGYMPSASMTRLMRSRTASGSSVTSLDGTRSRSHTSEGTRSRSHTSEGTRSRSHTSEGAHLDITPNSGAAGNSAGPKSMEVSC
Sequence of Protein NDRG1 (Homo sapiens), Q92597 R234Q (Q92597 whole entry R234Q): as the sequence (Q92597 whole entry L146P) above, with P146L, R234Q counted along it

In the case of “Protein NDRG1 (Homo sapiens), Q92597 L146P”, the “effect of a mutation on the interaction” value (rab4a_human RAB4A [1]) is reported as “with no effect” and the “effect of a mutation on the interaction” value (rab4a_human RAB4A [2]) is reported as “decreasing interaction strength”.
For “Protein NDRG1 (Homo sapiens), Q92597 R234Q”, the “effect of a mutation on the interaction” value (rab4a_human RAB4A [1]) was “with no effect”.

Reference: IntAct's records for PubMed 28776325
